T1: FLAG-tagged human APRIL (human, UniProt O75888 105-250, limits assumed)
T1 construct: also called FLAG-tagged APRIL; FLAG-APRIL; not shown: FLAG tag
T1 sequence (looked up): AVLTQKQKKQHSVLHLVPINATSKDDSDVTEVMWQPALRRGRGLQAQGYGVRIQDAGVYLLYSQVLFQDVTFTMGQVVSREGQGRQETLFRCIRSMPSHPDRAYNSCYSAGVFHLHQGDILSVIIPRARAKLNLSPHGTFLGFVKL


Target: T1, FLAG-tagged human APRIL
Test: ELISA on FLAG-tagged human APRIL captured by anti-FLAG
Protocol: The plasmids encoding the VH and VL constructs were mixed in a 1:3 ratio (4 μg in total) and transiently expressed by transfection into HEK293T human embryonic kidney cells (HEK293T/17, ATCC-CRL-11268), using Lipofectamine 2000 transfection reagent (Invitrogen) following the manufacturer's instructions. Cell supernatants were harvested after 5 days and tested for expression of antibody and binding to APRIL using an enzyme-linked immuno assay (ELISA). In these ELISAs, all incubation steps were followed by a wash step with PBST (PBS with 0.01% Tween 20). Maxisorb 96-wells plates (Nunc) were coated with 0.5 μg/ml anti-FLAG (Sigma) or anti-IgG4 (Jackson laboratories) and incubated overnight at 4° C. Subsequently the anti-FLAG coated 96-wells plates were incubated with FLAG-tagged human APRIL for 1 hour at room temperature. Next, supernatants and dilutions thereof were incubated for 1 hour, which was followed by an incubation of 1 hour with mouse anti-human IgG HRP-conjugate (Southern Biotechnology).
Immunoreactivity was visualized with 100 μl TMB Stabilized Chromagen (Invitrogen). Reactions were stopped with 100 μl 0.5 M H2504 and absorbances were measured at 450 and 620 nm.

Row | Binder | binding result
1 | VH14.VL11 (combination of VH14 with VL11) (antibody, human IgG4, V domains shown, Human IgG4 (S241P) / human kappa; Member of the group 'combinations of VH11-VH14 with VL10-VL14') VH: QVQLVQSGAEVKKPGASVKVSCKASGYTFTSYVMHWVRQAPGQGLEWMGYINPYNDAPKYNEKFKGRVTMTRDTSASTAYMELSSLRSDDTAVYYCARGLGYALYYAMDYWGQGTTVTVSS VL: DIVMTQSQKFMPTSVGDRVSVTCKASQNVGNNVAWYQQKPGQSPKALIYSASNRDSGVPDRFTGSGSGTDFTLTITNVQSEDLAEYFCQQYNIYPFTFGAGTKLELK | no binding
2 | VH13.VL14 (combination of VH13 with VL14) (antibody, human IgG4, V domains shown, Human IgG4 (S241P) / human kappa; Member of the group 'combinations of VH11-VH14 with VL10-VL14') VH: QVQLVQSGAEVKKPGASVKVSCKASGYTFTSYVMHWVRQAPGQGLEWMGYINPYNDAPKYNEKFKGRVTMTRDTSTSTVYMELSSLRSEDTAVYYCARGLGYALYYAMDYWGQGTMVTVSS VL: DILMTQSQKIMPTSVGDRVSVTCKASQNVGNNVAWYQQKPGQSPKALIYSASNRDSGVPDRFTGSGSGTDFTLTITNVQSEDLAEYFCQQYNIYPFTFGAGTKLDLK | no binding
3 | VH11.VL14 (combination of VH11 with VL14) (antibody, human IgG4, V domains shown, Human IgG4 (S241P) / human kappa; Member of the group 'combinations of VH11-VH14 with VL10-VL14') VH: QVQLVQSGAEVKKPGASVKVSCKASGYTFTSYVMHWVRQAPGQRLEWMGYINPYNDAPKYNEKFKGRVTITRDTSASTAYMELSSLRSEDTAVYYCARGLGYALYYAMDYWGQGTTVTVSS VL: DILMTQSQKIMPTSVGDRVSVTCKASQNVGNNVAWYQQKPGQSPKALIYSASNRDSGVPDRFTGSGSGTDFTLTITNVQSEDLAEYFCQQYNIYPFTFGAGTKLDLK | no binding
4 | VH14.VL14 (combination of VH14 with VL14) (antibody, human IgG4, V domains shown, Human IgG4 (S241P) / human kappa; Member of the group 'combinations of VH11-VH14 with VL10-VL14') VH: QVQLVQSGAEVKKPGASVKVSCKASGYTFTSYVMHWVRQAPGQGLEWMGYINPYNDAPKYNEKFKGRVTMTRDTSASTAYMELSSLRSDDTAVYYCARGLGYALYYAMDYWGQGTTVTVSS VL: DILMTQSQKIMPTSVGDRVSVTCKASQNVGNNVAWYQQKPGQSPKALIYSASNRDSGVPDRFTGSGSGTDFTLTITNVQSEDLAEYFCQQYNIYPFTFGAGTKLDLK | no binding
5 | VH13.VL11 (combination of VH13 with VL11) (antibody, human IgG4, V domains shown, Human IgG4 (S241P) / human kappa; Member of the group 'combinations of VH11-VH14 with VL10-VL14') VH: QVQLVQSGAEVKKPGASVKVSCKASGYTFTSYVMHWVRQAPGQGLEWMGYINPYNDAPKYNEKFKGRVTMTRDTSTSTVYMELSSLRSEDTAVYYCARGLGYALYYAMDYWGQGTMVTVSS VL: DIVMTQSQKFMPTSVGDRVSVTCKASQNVGNNVAWYQQKPGQSPKALIYSASNRDSGVPDRFTGSGSGTDFTLTITNVQSEDLAEYFCQQYNIYPFTFGAGTKLELK | no binding
6 | VH11.VL11 (combination of VH11 with VL11) (antibody, human IgG4, V domains shown, Human IgG4 (S241P) / human kappa; Member of the group 'combinations of VH11-VH14 with VL10-VL14') VH: QVQLVQSGAEVKKPGASVKVSCKASGYTFTSYVMHWVRQAPGQRLEWMGYINPYNDAPKYNEKFKGRVTITRDTSASTAYMELSSLRSEDTAVYYCARGLGYALYYAMDYWGQGTTVTVSS VL: DIVMTQSQKFMPTSVGDRVSVTCKASQNVGNNVAWYQQKPGQSPKALIYSASNRDSGVPDRFTGSGSGTDFTLTITNVQSEDLAEYFCQQYNIYPFTFGAGTKLELK | no binding
7 | VH12.VL11 (combination of VH12 with VL11) (antibody, human IgG4, V domains shown, Human IgG4 (S241P) / human kappa; Member of the group 'combinations of VH11-VH14 with VL10-VL14') VH: QVQLVQSGAEVKKPGASVKVSCKASGYTFTSYVMHWVRQAPGQGLEWMGYINPYNDAPKYNEKFKGRVTMTRDTSISTAYMELSRLRSDDTAVYYCARGLGYALYYAMDYWGQGTTVTVSS VL: DIVMTQSQKFMPTSVGDRVSVTCKASQNVGNNVAWYQQKPGQSPKALIYSASNRDSGVPDRFTGSGSGTDFTLTITNVQSEDLAEYFCQQYNIYPFTFGAGTKLELK | no binding
8 | VH12.VL14 (combination of VH12 with VL14) (antibody, human IgG4, V domains shown, Human IgG4 (S241P) / human kappa; Member of the group 'combinations of VH11-VH14 with VL10-VL14') VH: QVQLVQSGAEVKKPGASVKVSCKASGYTFTSYVMHWVRQAPGQGLEWMGYINPYNDAPKYNEKFKGRVTMTRDTSISTAYMELSRLRSDDTAVYYCARGLGYALYYAMDYWGQGTTVTVSS VL: DILMTQSQKIMPTSVGDRVSVTCKASQNVGNNVAWYQQKPGQSPKALIYSASNRDSGVPDRFTGSGSGTDFTLTITNVQSEDLAEYFCQQYNIYPFTFGAGTKLDLK | no binding
